Results reported in US10654918B2, “Inflammatory disease diagnosis and methods of treatment using down-regulators of lipopolysaccharide-responsive beige-like anchor” (University of South Florida, priority 2013, dated 2020).

Legend:
Format in all cases: cell-based, human
[1] = test system: NFκB; test: NFκB luciferase activity in A549 clones with LRBA shRNA knockdown; details: A549 clones with different knockdown levels, LPS 10 μg/ml; dose-dependent
Source text: FIG. 45A-D. Knockdown of LRBA deregulates NFκB. (A) Knockdown of LRBA increases NFκB luciferase activity. An NFκB luciferase reporter was used to measure the NFκB transcription activity. The data are shown as scatter with bar graph of mean with standard error of mean (SEM). (B) Knockdown of LRBA increases phospho-NFκB. The Phosflow kit including Cytofix Fixation Buffer, Phosflow Perm Buffer III and Stain Buffer (BD) and phospho-antibodies, NFκB p65 (pS529) PE-Cy7 were used for the intracellular staining following the company's instruction. For each samples, 50,000 cells were recorded for the FACS assay. (C) A549 cells were stably transfected with LRBA shRNA knockdown plasmid and several clones were picked up. Half million of cells were seeded in a well of a 24 well plate and incubated overnight, then stimulated with LPS (10 μg/ml) for certain time. Luciferase assay Biotium. NFκB luciferase activity is inversely dose-dependent on the LRBA levels in A549 cells with different levels of LRBA knockdown judged by the GFP levels of the cells stably transfected with the LRBA shRNA/GFP construct. (D) LRBA KD#3, LRBA KD#4 and LRBA KD#5 clones express different levels of GFP expression from low to high. The GFP expression levels can be an indicator of shRNA expression levels and are inversely related to the levels of LRBA. […]

[2] = test system: LRBA; test: Knockdown of LRBA in Raji B cell lines stably transfected with LRBA shRNA; details: three Raji B cell lines stably transfected
Experimental: Three Raji B cell lines stablely transfected with LRBA shRNA that knockdown LRBA over 90% were generated, along with […] mouse cell lines stably transfected with a LRBA DNM.
LRBA was tested for its effect on cell growth. For the “loss of function” strategy, EBV immotalized LRBA-deficient B cell lines were generated from LRBA deficient patients, and dominant negative LRBA mutants (DNM) and knockout mouse models. The LRBA sequence targeted by the shRNA used was SEQ ID No. 15;

[3] = test system: Raji cells; test: Cell surface CVID and TLR4 receptors on LRBA WT and LRBA KD Raji cells (flow cytometry)
Source text: LRBA is an important vesicle trafficking regulator (Wang, et al., Identification of a novel lipopolysaccharide-inducible gene with key features of both A kinase anchor proteins and chs1/beige proteins. 2001. J Immunol 166: 4586-4595; Cullinane, et al., The BEACH Is Hot: A LYST of Emerging Roles for BEACH-Domain Containing Proteins in Human Disease. 2013. Traffic) and may function as a master regulator of multiple CVID receptors. To test this, LRBA WT and LRBA KD Raji cells were stimulated with LPS, and the cell surface levels of CVID receptors and TLR4 were analyzed by flow cytometry. BD FACSelect Multicolor Panel Designer was used to search antibodies and build up the panel for multiple color cytometry for LSRII FACS machine. Fluorophores directly conjugated antibodies against cell surface CVID proteins were used: CD19-PerCP-Cy5.5, CD2O-PE-Cy7, CD21-V450, BAFFR-PE, TACI-APC, and CD81-APC-H7. Two panels were used when use live/dead discrimination with DAPI […] or 7AAD (overlap with V450). The standard staining procedures were followed and 20,000 to half million cells were acquired. Data acquisition was performed using FACS LSRII flow cytometers and analyzed using FACSDiva version 6.1.2.

[4] = test system: Raji B cells; test: Viable cell count of Raji B cells and Rajisi9 B cells; details: 10 cells per well, 11 days
Experimental: FIG. 20 is a graph showing knockdown of LRBA promotes B cell proliferations. Raji B cells and Rajisi9 B cells (Raji B cells stably transfected with shRNA plasmid against LRBA) were culture on a 96 well plate with 10 cells per well for 11 days. Viable cells were counted by the Trypan blue live/dead discrimination method with a Hemocytometer.
Raji B cells and Rajisi9 B cells (Raji B cells stably transfected with shRNA plasmid against LRBA) were cultured in a 96 well plate with 10 cells per well for 9 days. Blockage of LRBA promotes THP1 cell proliferation. THP1 cells (human acute monocytic leukemia cell line) were cultured in 100 μl of RPMI1640 media with or without human LRBA polyclonal IgG antibody at 0.67 μg/ml or the same amount of human actin polyclonal IgG antibody on a 96 well plate with 10 cells per well for 9 days. Viable cells were counted by the trypan blue live/dead discrimination method with a hemocytometer.

[5] = Raji cell surface, LPS stimulated, Knockdown

B1: LRBA shRNA: shRNA plasmid against LRBA; targeted LRBA sequence SEQ ID No. 15 GGGATATTGTAGAAACTGTCTTT (nucleic acid)
sense: GGGATATTGTAGAAACTGTCTTTTTCAAGAGAAAAGACAGTTTCTACAATATCCCTTTTTT
antisense: CCCTATAACATCTTTGACAGAAAAAGTTCTCTTTTCTGTCAAAGATGTTATAGGGAAAAAA
NFκB luciferase activity [1]: increases
knockdown of LRBA [2]: over 90%
BAFFR Median Intensity [3, 5]: 4198.00 ± 496.75 arbitrary fluorescence intensity units
BAFFR Percentage [3, 5]: 90.83 ± 0.93%
CD19 Median Intensity [3, 5]: 5830.17 ± 159.95 arbitrary fluorescence intensity units
CD19 Percentage [3, 5]: 98.57 ± 0.28%
CD20 Median Intensity [3, 5]: 29541.25 ± 332.06 arbitrary fluorescence intensity units
CD20 Percentage [3, 5]: 99.18 ± 0.04%
CD21 Median Intensity [3, 5]: 1659.50 ± 72.48 arbitrary fluorescence intensity units
CD21 Percentage [3, 5]: 55.08 ± 5.00%
TACI Median Intensity [3, 5]: 1813.50 ± 412.89 arbitrary fluorescence intensity units
TACI Percentage [3, 5]: 7.38 ± 1.49%
TLR4 Median Intensity [3, 5]: 11204.60 ± 2171.10 arbitrary fluorescence intensity units
TLR4 Percentage [3, 5]: 31.27 ± 11.42%
BAFFR Median Intensity fold ([3]; Wild type vs Knockdown): 0.81↑
BAFFR Percentage fold ([3]; Wild type vs Knockdown): 0.96↑
CD19 Median Intensity fold ([3]; Wild type vs Knockdown): 1.23↓
CD19 Percentage fold ([3]; Wild type vs Knockdown): 1.00
CD20 Median Intensity fold ([3]; Wild type vs Knockdown): 1.21↓
CD20 Percentage fold ([3]; Wild type vs Knockdown): 1.00
CD21 Median Intensity fold ([3]; Wild type vs Knockdown): 0.96↑
CD21 Percentage fold ([3]; Wild type vs Knockdown): 0.49↑
TACI Median Intensity fold ([3]; Wild type vs Knockdown): 1.33↓
TACI Percentage fold ([3]; Wild type vs Knockdown): 4.07↓
TLR4 Median Intensity fold ([3]; Wild type vs Knockdown): 1.04
TLR4 Percentage fold ([3]; Wild type vs Knockdown): 1.82↓
B cell proliferations (viable cells, Trypan blue) [4]: promotes
